Experimental data published in the DeepSol protein solubility set.

assay: soluble on expression in E. coli; label from the status in PepcDB or PDB records

Sequence | soluble on expression in E. coli
MAHHHHHHMSSVSSPPLTDAEVRELSTAEIRLNLERCSRLLSQASLLRRLRDGGEGIRHRSELFAKELERRHTVEAANGDASTRLASSTLTEALKRENEAAILSESTHNATDAAREIAQKYRDQRIDVEATVRRIYEGILSESEIQRILHSVPPRFFLTYAETCEMERQLARDARKVELQKLAAQAARLSATPQ | soluble
MAHHHHHHMSTGHLRSVQLCRGQLRSLSHSSSMVGLRDFCNLVDECIKDIGVLKVNADDARILLHKRQQTFPSRHCDGVLAQTQVLYAQVLLKNLAEPVNRLIVRPVAVKNEGSEGLGVLHKPYDGAQSASPEIIAAQLELLQRAHRPTALNVLQDCRVHAATLLRAVRAVQLAQVRFSPHEKCTNTHGPKKKKK | not soluble
MAHHHHHHMSTRTILTAGEAAEVLASVRYVLLDVDGVLWAGKHVLPNIPETLLYLRLREKQIRFLTNNASISRAGLVREFQRRGIQGVREGEVYNSGFAAALRLQSLFTANKSTGSGRPLVERNIFVIGEEGLHEELRRVLAPGYIAYGMELHDAEKCGGYDAHVVASAWKQRVLPAPLQSSATSCGIAATGHAAGGISISDLSPAAVVVGLDMHFNMLKLAYASLCLQERPAAQTAGTSSSTPTYFIATNEDPQIPVGEDFLLLPGAGGMVSALRTVSGRSPDFVCGKPHVDMAKVFFEAEGITDPQQCLMVGDRLTTDIAFGNAAGCKTMLVLSGAEKMDRVRQAERDGHVSLLPDFIAPSLAIFLPPA | soluble
MAHHHHHHMSVIGVFSKGRATGHASVMSVLRYVPRARVPWQPSRFGRENLADDDMAQLWGTGRYRTGPGNYNSGYSTKKTHALEDSTVSIIPKHELEKFMPDISLGSKALVTPVSLMSARNGHRVTHDLIHSYDPYIGRLQKPAVVDHDNITVEDPNRVGLNAATLDCRSRIYRWLRRGPFFQEDNYFRRSTKLQRNGPVPVSVHEVPLMQRIIRLARRGHLKAACEEYRRVTSVPPVDVYRALTAACVPGAKLADAIAIFEDGHSRLFYVARDGEVLHNMLRCAIRAKHRVRVMWVYNVMVGRHYENVVVRAEVDVIWRYRIASLALEYLLDSNAGEEARTVYDYLVENELVDCDLHVRLGHVMQQALKEGKTVHVQQDALDGMALSQNVVAVAPQVAVAVYARYLETMQEGAAWTDARGLPLTDPAKTGADTNGAAAVAWLKAAFPDIDPVAVLRLARFRRSSKDLMAKDRPVYVQRAAQWVELLSSAHQTREEAPLTYLRKSRPSMANPNVRVAWLPERQRAHALLASDEGFKFAYAGPHTRFVEETFAYGENTLQSRYLAQQPVHTEVTPSVALGAAAVAAGMSSGSALPRLPGSSAAPQILHASVLLDGSLNGSSGSGTSTLRSGRNESAKAAASPTAGISSRPSSASSSAGLDDTHF | not soluble
MAHHHHHHMSVPLRRTVLHSLHLSRKARMGPFAGYDMPIHYQPGVVQEHLHTRQAAGLFDVSHVGFFEVWGADRHKFFEWVTPSGVTELQDGQSALTLFMNESGGVKDDCIVSKYSDHLLAVINAGCKGKIITHLKDRLAEFKGDATLVELDRAMVSLQGPKAASVMAPFVEELDRVKFMWGRRSVCVKGIDITLTRCSYSGEDGFDIIVPIQDAVQFVELLLQNPDVQLAGLGARDSLRTEAGLCLYSHELSEEVNPVAARLMWCIPKRRMAEGGFIGHERLQTFVQRAKELVPRLRMGILSVARGPVARTGMPILVGDVVVGEVTSGVPSPTLSRNIAIGYIDRAKARAGETVELEVRGKRLPGEVTLPRFVPQRYYKG | not soluble
MAHHHHHHMSVVRVSITHSSSGIRVPEKRYELSQTIASIKSNIFTHFATPPEQMQLQLIDDRGVKVESSMADDKQLGYYQCRDDFVIHVVDLRPTQQIANFEDVSQVQKYEITEEAYSKREDNARAFRQLMMARQREEAEKAGNPLPKELDADSYKETAEKIHVDDRCQCQPGDRLGTVRFVGRVASLKPGYWIGVEFDEPVGKGDGSVKGTRVFECQPKYGGFLRPDQVTVGDFPPEEF | not soluble
MAHHHHHHMSYPYYTEFFVRFPKFKEREESERTVDPRIELEKKCQAKCVRPVNEYQSCVSRVQAKPEMKGNCLGQHEEMYMCIDHCVAKDLFNYLV | not soluble
